The data set concerns the target CD33 (UniProt P20138 18-259). Nature of the data set: LOCK displacement, CHA/Cas12a fluorescence.

The text below walks through data of PMC11983205.

Chain of CD33 (P20138 18-259): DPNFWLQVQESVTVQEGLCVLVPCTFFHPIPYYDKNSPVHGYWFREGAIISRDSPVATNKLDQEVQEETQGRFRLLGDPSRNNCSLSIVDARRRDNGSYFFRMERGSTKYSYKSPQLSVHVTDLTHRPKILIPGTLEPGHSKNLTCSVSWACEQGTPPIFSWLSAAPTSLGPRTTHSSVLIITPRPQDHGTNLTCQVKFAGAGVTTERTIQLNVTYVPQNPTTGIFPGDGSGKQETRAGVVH

B1: CD33 YES gate DNA1/LOCK (mixed)
DNA 1: TAGCTTATCAGACTGATGTTGATACCAGTGCGATGCTCAGCACGCTTATAGGGGCTGGACAAAATTCTACCCAGCCTTTTCTGACGCATTCGGTTGAC
DNA 2: CACTGGTATCAACATCAGTC
In the case of B1, the binding result is “binds”.
